Here are results for two molecules from patent US20150266962A1 (Pfizer, published 2015).

The term EC50 denotes the concentration at which the effect is half-maximal. As usually defined, the Kd is the equilibrium constant for the complex coming apart. What is called koff is the first-order rate constant of dissociation. For orientation: kon means a measure of how fast the partners come together.

The target of experiment [1] is T1, recombinant human IL-13 receptor alpha 2 (hIL-13-Rα2) (human, UniProt Q14627 27-343).
T1 construct: Recombinant soluble antigen coated on ELISA plates or used in Biacore; also called rec hIL-13Rα2; rhIL-13Rα2
T1 sequence (looked up): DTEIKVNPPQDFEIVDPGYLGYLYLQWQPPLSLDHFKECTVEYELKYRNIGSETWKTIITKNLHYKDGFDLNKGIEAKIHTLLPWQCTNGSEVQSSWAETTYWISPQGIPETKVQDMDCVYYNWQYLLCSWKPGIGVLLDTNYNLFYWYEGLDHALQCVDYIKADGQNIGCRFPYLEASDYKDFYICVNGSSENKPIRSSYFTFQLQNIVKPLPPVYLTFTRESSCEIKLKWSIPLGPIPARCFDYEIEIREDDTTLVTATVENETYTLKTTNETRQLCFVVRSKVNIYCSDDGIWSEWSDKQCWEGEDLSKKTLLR
The experiment in a line: direct ELISA on recombinant hIL-13-Rα2 (given as ED50). On the procedure: (§1) Chimeric antibodies 07 and 08 (ch07 and ch08) were constructed having murine heavy chain and light chain variable region sequences with human IgG1 heavy chain constant regions and human kappa light chain constant regions using methods known in the art. To assess the binding activity and specificity of ch07 and ch08, a standard direct ELISA protocol was performed utilizing recombinant hIL-13-Rα2 and hIL-13Ra1, receptors for IL-13 cytokine. The binding was detected by horseradish peroxidase (HRP) conjugated goat anti-human IgGKappa.
(In general: In an ELISA, binding on a coated surface is turned into a signal by an enzyme label.)

The target of experiment [2] is T2, recombinant human IL-13 receptor alpha 1 (hIL-13Rα1) (human, UniProt P78552 22-343).
T2 construct: also called hIL-13Ra1
T2 sequence (looked up): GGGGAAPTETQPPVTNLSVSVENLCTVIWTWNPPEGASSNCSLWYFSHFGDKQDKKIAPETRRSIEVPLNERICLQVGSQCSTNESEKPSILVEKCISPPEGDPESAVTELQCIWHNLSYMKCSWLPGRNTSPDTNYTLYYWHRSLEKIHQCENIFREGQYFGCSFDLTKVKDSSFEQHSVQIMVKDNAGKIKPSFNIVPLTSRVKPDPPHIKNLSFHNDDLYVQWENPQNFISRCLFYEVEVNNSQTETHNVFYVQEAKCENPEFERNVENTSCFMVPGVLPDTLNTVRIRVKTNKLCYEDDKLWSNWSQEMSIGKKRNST
Description: direct ELISA on plate-coated recombinant hIL-13Rα1, detected with HRP goat anti-human Ig kappa. On the procedure:
as §1

Experiment [3] addresses T1, recombinant human IL-13 receptor alpha …. The experiment in a line: SPR Biacore, human Fab Capture Kit, 1:1 Langmuir model, pH 6.0. On the procedure: (§2) To assess the binding kinetics of the ch07 and ch08 antibodies, SPR (Surface Plasmon Resonance) experiments were conducted on a Biacore® T100 or T200 instrument using a Biacore® human Fab Capture Kit (GE Healthcare). All data was analyzed using the Biacore® T100 evaluation software version 2.0 with a 1:1 Langmuir binding model.
On the technique in general: SPR reads the build-up and loss of mass on a sensor chip optically.

For experiment [4], the target named is T3, cynomolgus monkey IL-13-Rα2 ECD/TM domain with C-terminal Flag tag, on transfected HEK293 cells (cynomolgus monkey, UniProt Q14627 27-363 (human entry)).
T3 construct: also called cyno-IL-13-Rα2; cyno IL-13Rα2; not shown: Flag tag at the C-terminal end
T3 chain: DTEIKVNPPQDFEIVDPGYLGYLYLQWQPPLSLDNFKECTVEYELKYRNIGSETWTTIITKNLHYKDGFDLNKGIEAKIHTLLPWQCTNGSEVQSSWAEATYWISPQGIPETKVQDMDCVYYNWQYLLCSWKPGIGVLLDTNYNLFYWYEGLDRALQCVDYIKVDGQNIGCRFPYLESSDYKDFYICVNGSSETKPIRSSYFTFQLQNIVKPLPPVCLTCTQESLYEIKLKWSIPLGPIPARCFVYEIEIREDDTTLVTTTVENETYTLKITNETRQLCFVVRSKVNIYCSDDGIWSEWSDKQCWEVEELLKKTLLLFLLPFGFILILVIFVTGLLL
Description: FACS on HEK293 cells transfected with cyno-IL-13-Rα2 (given as ED50). On the procedure:
The ECD/TM domain of cyno IL-13-Rα2 fused with Flag tag at the C-terminal end was cloned into the pSMED2 expression vector. HEK293 suspension cells were transiently transfected with cyno-IL-13-Rα2 containing plasmid and pSMED2 vector (as a mock transfection). The cells were harvested 72 hours later and subjected to FACS analysis. 4 antibodies including ch07, ch08, hu08v1.0/1.0 and hu08v1.1/1.1 were tested. The binding on the cell surface cyno-IL-13-Rα2 was detected with R-Phycoerythrin-labeled goat anti-human or mouse IgG.

The target of experiment [5] is T1, recombinant human IL-13 receptor alpha …. The experiment in a line: SPR Biacore, human Fab Capture Kit, 1:1 Langmuir model, pH 7.4. On the procedure: as §2
The target is the same in experiment [6]. Description: direct ELISA on coated recombinant hIL-13-Rα2. On the procedure:
Humanized hu08 binding to recombinant hIL-13-Rα2 was evaluated by a standard direct ELISA. Recombinant hIL-13-Rα2 was coated onto a 96-well plate. Serially diluted chimeric antibodies or humanized antibodies in combinations of heavy and light chains of versions 1.0 and 1.1 e.g. hu08 v1.0 HC/1.0 LC, hu08 v1.0 HC/v1.1 LC, hu08 v1.1 HC/v1.0 LC, and hu08 v1.1 HC/v1.1 LC, were added to the plate and incubated at room temperature for 1-2 hours. The binding was detected by HRP conjugated goat anti-human Ig Kappa.

B1: chimeric antibody ch08 (antibody, human IgG1, V domains shown)
VH: EVQLVESGGDLVRPGGSLQLSCAASGFTFSRNGMSWVRQTPDRRLEWVATVSSGGSYIYYADSVKGRFTISRDNARNTLYLQMSSLKSEDTAMYYCARQGTTALATRFFDVWGAGTTVTVSS
VL: DIVMTQSHKFISTSVGDRVSITCKASQDVGTAVAWYQQIPGQSPKLLIYSASYRSTGIPDRFTGSGSGTDFSFIISSVQAEDLALYYCQHHYSAPWTFGGGTTLDIK
notes: also called ch08Hc + Lc; chimeric antibody 08
B1: the results for the EC50 in experiment [1], in experiment [4] and in experiment [6] were 0.076 nM, 1.81 nM and 0.152 nM, respectively. Besides, the binding result in experiment [2] is listed as “no binding (tested: about 7 nM)”. For the same molecule, the Kd in experiment [3] was 5.36 nM; in experiment [5], 0.964 nM. Moreover, the koff is 0.000381 s⁻¹ in experiment [3] and 0.000416 s⁻¹ in experiment [5]. Besides, the kon was found to be 71200 M⁻¹ s⁻¹ in experiment [3] and 432000 M⁻¹ s⁻¹ in experiment [5].

B2: chimeric antibody ch07 (antibody, human IgG1, V domains shown)
VH: QVQLKESGPGLVAPSQSLSINCTVSGFSLTKYGVHWIRQSPGKGLEWLGVKWAGGSTDYNSALMSRLTISKDNNKSQVFLKMNSLQSDDSAMYYCARDHRDAMDYWGQGTSVTVSS
VL: QVVLTQSPAIMSASPGERVTMTCTASLSVSSTYLHWYHQKPGSSPKLWIYSTSNLASGVPARFSGSGSGTSYSLTISSMEAEDAATYYCHQYHRSPLTFGSGTKLELK
notes: also called chimeric antibody 07; biotin-ch07 (biotinylated form)
Take B2: in experiment [1], the EC50 came out at 0.15 nM. The binding result in experiment [2] is “no binding (tested: about 7 nM)”. In experiment [3], the dissociation constant Kd was 5.24 nM, the dissociation rate constant (koff) stood at 0.000337 s⁻¹ and the kon is 64300 M⁻¹ s⁻¹. In experiment [4], this molecule had an EC50 of 1.49 nM. For the same molecule, in experiment [5], the Kd was determined as 0.648 nM, the koff is 0.000234 s⁻¹ and the association rate constant (kon) is 361000 M⁻¹ s⁻¹.
